Data: IntAct's records for PubMed 15744310

B1: NAD-dependent protein deacetylase sirtuin-1 (Mus musculus), Q923E4 (parent)
chain: MADEVALALQAAGSPSAAAAMEAASQPADEPLRKRPRRDGPGLGRSPGEPSAAVAPAAAGCEAASAAAPAALWREAAGAAASAEREAPATAVAGDGDNGSGLRREPRAADDFDDDEGEEEDEAAAAAAAAAIGYRDNLLLTDGLLTNGFHSCESDDDDRTSHASSSDWTPRPRIGPYTFVQQHLMIGTDPRTILKDLLPETIPPPELDDMTLWQIVINILSEPPKRKKRKDINTIEDAVKLLQECKKIIVLTGAGVSVSCGIPDFRSRDGIYARLAVDFPDLPDPQAMFDIEYFRKDPRPFFKFAKEIYPGQFQPSLCHKFIALSDKEGKLLRNYTQNIDTLEQVAGIQRILQCHGSFATASCLICKYKVDCEAVRGDIFNQVVPRCPRCPADEPLAIMKPEIVFFGENLPEQFHRAMKYDKDEVDLLIVIGSSLKVRPVALIPSSIPHEVPQILINREPLPHLHFDVELLGDCDVIINELCHRLGGEYAKLCCNPVKLSEITEKPPRPQKELVHLSELPPTPLHISEDSSSPERTVPQDSSVIATLVDQATNNNVNDLEVSESSCVEEKPQEVQTSRNVENINVENPDFKAVGSSTADKNERTSVAETVRKCWPNRLAKEQISKRLEGNQYLFVPPNRYIFHGAEVYSDSEDDVLSSSSCGSNSDSGTCQSPSLEEPLEDESEIEEFYNGLEDDTERPECAGGSGFGADGGDQEVVNEAIATRQELTDVNYPSDKS
partner: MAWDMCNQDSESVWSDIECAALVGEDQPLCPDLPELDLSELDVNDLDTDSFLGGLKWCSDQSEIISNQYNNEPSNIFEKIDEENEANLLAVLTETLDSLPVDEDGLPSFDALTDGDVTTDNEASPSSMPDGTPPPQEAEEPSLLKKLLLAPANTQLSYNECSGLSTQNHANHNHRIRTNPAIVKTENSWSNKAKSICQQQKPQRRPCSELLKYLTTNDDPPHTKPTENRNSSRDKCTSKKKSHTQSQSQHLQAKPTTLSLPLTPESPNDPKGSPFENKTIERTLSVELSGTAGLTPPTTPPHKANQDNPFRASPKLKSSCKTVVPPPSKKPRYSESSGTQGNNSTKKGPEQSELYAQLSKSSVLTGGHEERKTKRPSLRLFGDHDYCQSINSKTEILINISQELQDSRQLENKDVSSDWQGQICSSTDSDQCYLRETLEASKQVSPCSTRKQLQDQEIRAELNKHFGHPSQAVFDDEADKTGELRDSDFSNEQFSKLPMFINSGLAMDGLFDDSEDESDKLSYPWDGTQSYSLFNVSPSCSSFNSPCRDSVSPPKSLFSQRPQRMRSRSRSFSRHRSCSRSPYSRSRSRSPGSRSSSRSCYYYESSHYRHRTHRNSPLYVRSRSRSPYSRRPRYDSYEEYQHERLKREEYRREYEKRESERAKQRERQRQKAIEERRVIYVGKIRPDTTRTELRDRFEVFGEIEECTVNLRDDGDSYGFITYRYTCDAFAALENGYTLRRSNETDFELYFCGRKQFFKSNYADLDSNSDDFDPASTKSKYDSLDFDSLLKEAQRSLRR

Variants of: B1
Conditions: with prgc1_human PPARGC1A

H355A was tested. Which “effect of a mutation on the interaction” value did it give?
Its value is “decreasing interaction”.
